# Assay results published in IntAct's records for PubMed 31515488.
# B1: Transcription factor 12 (Homo sapiens), Q99081 (parent)
# chain: MNPQQQRMAAIGTDKELSDLLDFSAMFSPPVNSGKTRPTTLGSSQFSGSGIDERGGTTSWGTSGQPSPSYDSSRGFTDSPHYSDHLNDSRLGAHEGLSPTPFMNSNLMGKTSERGSFSLYSRDTGLPGCQSSLLRQDLGLGSPAQLSSSGKPGTAYYSFSATSSRRRPLHDSAALDPLQAKKVRKVPPGLPSSVYAPSPNSDDFNRESPSYPSPKPPTSMFASTFFMQDGTHNSSDLWSSSNGMSQPGFGGILGTSTSHMSQSSSYGNLHSHDRLSYPPHSVSPTDINTSLPPMSSFHRGSTSSSPYVAASHTPPINGSDSILGTRGNAAGSSQTGDALGKALASIYSPDHTSSSFPSNPSTPVGSPSPLTGTSQWPRPGGQAPSSPSYENSLHSLQSRMEDRLDRLDDAIHVLRNHAVGPSTSLPAGHSDIHSLLGPSHNAPIGSLNSNYGGSSLVASSRSASMVGTHREDSVSLNGNHSVLSSTVTTSSTDLNHKTQENYRGGLQSQSGTVVTTEIKTENKEKDENLHEPPSSDDMKSDDESSQKDIKVSSRGRTSSTNEDEDLNPEQKIEREKERRMANNARERLRVRDINEAFKELGRMCQLHLKSEKPQTKLLILHQAVAVILSLEQQVRERNLNPKAACLKRREEEKVSAVSAEPPTTLPGTHPGLSETTNPMGHM
# partner: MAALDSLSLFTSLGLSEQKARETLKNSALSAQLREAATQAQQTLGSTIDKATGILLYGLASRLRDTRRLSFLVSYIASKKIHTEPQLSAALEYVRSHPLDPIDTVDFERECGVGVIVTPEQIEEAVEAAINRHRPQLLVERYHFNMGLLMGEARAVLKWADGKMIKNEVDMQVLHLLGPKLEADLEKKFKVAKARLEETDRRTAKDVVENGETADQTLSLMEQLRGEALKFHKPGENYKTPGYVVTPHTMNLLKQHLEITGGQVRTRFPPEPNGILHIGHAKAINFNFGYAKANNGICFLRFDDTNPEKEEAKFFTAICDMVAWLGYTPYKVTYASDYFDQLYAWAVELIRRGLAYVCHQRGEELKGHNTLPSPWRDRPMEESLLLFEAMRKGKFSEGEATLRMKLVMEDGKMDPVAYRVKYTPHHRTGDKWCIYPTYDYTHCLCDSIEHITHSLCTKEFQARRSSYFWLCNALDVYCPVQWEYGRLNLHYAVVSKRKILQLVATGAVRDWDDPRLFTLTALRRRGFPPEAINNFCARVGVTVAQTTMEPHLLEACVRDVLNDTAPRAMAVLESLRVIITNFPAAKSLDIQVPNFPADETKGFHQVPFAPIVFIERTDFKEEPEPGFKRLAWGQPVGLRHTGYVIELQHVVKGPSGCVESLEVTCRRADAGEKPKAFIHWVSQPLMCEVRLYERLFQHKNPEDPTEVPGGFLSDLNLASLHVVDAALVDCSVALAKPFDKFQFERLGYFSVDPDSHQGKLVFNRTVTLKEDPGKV
# B2: Inactive peptidyl-prolyl cis-trans isomerase FKBP6 (Homo sapiens), O75344 (parent)
# chain: MGGSALNQGVLEGDDAPGQSLYERLSQRMLDISGDRGVLKDVIREGAGDLVAPDASVLVKYSGYLEHMDRPFDSNYFRKTPRLMKLGEDITLWGMELGLLSMRRGELARFLFKPNYAYGTLGCPPLIPPNTTVLFEIELLDFLDCAESDKFCALSAEQQDQFPLQKVLKVAATEREFGNYLFRQNRFYDAKVRYKRALLLLRRRSAPPEEQHLVEAAKLPVLLNLSFTYLKLDRPTIALCYGEQALIIDQKNAKALFRCGQACLLLTEYQKARDFLVRAQKEQPFNHDINNELKKLASCYRDYVDKEKEMWHRMFAPCGDGSTAGES
# partner: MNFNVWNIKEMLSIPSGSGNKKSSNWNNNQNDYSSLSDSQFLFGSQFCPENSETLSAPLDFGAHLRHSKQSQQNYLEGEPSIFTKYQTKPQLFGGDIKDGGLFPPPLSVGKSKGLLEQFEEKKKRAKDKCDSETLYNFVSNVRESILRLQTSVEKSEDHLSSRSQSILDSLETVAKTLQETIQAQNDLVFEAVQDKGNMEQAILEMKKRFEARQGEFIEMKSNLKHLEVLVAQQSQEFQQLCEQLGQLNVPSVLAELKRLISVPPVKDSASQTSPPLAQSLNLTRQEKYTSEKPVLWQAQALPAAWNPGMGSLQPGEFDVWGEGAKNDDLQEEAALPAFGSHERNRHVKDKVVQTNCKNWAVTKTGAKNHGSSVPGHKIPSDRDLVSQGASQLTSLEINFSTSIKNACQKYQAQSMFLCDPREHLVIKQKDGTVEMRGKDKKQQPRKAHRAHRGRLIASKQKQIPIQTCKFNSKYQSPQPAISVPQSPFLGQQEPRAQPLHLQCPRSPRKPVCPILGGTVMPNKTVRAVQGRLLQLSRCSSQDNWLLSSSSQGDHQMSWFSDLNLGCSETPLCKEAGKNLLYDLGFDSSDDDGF
# B3: Ligand of Numb protein X 2 (Homo sapiens), Q8N448 (parent)
# chain: MGTTSDEMVSVEQTSSSSLNPLCFECGQQHWTRENHLYNYQNEVDDDLVCHICLQPLLQPLDTPCGHTFCYKCLRNFLQEKDFCPLDRKRLHFKLCKKSSILVHKLLDKLLVLCPFSSVCKDVMQRCDLEAHLKNRCPGASHRRVALERRKTSRTQAEIENENGPTLLDPAGTLSPEADCLGTGAVPVERHLTSASLSTWSEEPGLDNPAFEESAGADTTQQPLSLPEGEITTIEIHRSNPYIQLGISIVGGNETPLINIVIQEVYRDGVIARDGRLLAGDQILQVNNYNISNVSHNYARAVLSQPCNTLHLTVLRERRFGNRAHNHSDSNSPREEIFQVALHKRDSGEQLGIKLVRRTDEPGVFILDLLEGGLAAQDGRLSSNDRVLAINGHDLKYGTPELAAQIIQASGERVNLTIARPGKPQPGNTIREAGNHSSSSQHHTPPPYYSRPSSHKDLTQCVTCQEKHITVKKEPHESLGMTVAGGRGSKSGELPIFVTSVPPHGCLARDGRIKRGDVLLNINGIDLTNLSHSEAVAMLKASAASPAVALKALEVQIVEEATQNAEEQPSTFSENEYDASWSPSWVMWLGLPSTLHSCHDIVLRRSYLGSWGFSIVGGYEENHTNQPFFIKTIVLGTPAYYDGRLKCGDMIVAVNGLSTVGMSHSALVPMLKEQRNKVTLTVICWPGSLV
# partner: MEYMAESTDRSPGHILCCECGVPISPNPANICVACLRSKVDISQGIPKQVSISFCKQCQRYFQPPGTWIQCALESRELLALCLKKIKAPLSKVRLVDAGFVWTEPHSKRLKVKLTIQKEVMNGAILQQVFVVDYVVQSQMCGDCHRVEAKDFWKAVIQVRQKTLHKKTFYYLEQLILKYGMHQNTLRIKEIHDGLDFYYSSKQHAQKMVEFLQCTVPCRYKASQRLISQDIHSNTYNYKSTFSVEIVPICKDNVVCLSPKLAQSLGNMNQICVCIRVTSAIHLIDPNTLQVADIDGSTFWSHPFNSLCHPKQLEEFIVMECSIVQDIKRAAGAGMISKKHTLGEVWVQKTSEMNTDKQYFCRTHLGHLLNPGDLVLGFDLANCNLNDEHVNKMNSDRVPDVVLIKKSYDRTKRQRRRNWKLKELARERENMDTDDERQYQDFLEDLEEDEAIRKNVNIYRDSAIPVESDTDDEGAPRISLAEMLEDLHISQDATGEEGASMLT
# B4: UPF0462 protein C4orf33 (Homo sapiens), Q8N1A6 (parent)
# chain: MDFKIEHTWDGFPVKHEPVFIRLNPGDRGVMMDISAPFFRDPPAPLGEPGKPFNELWDYEVVEAFFLNDITEQYLEVELCPHGQHLVLLLSGRRNVWKQELPLSFRMSRGETKWEGKAYLPWSYFPPNVTKFNSFAIHGSKDKRSYEALYPVPQHELQQGQKPDFHCLEYFKSFNFNTLLGEEWKQPESDLWLIEKCDI
# B5: Protein SPMIP9 (Homo sapiens), Q96LM6 (parent)
# chain: MAGVKYPGQDPVDLDIYQSSHMVDYQPYRKHKYSRVTPQEQAKLDAQLRDKEFYRPIPNPNPKLTDGYPAFKRPHMTAKDLGLPGFFPSQEHEATREDERKFTSTCHFTYPASHDLHLAQGDPNQVLQSADFPCLVDPKHQPAAEMAKGYLLLPGCPCLHCHIVKVPILNRWGPLMPFYQ
# partner: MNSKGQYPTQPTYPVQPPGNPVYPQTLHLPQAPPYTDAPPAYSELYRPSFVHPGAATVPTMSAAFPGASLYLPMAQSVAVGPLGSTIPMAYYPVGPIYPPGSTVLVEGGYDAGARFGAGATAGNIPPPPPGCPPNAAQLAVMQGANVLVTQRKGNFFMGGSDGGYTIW
# Variants of: B1
# Conditions: with syq_human QARS1, P47897
row,Variant,effect of a mutation on the interaction
1,A458V,with no effect
2,I11M,with no effect
3,L483R,with no effect
4,N479S,with no effect
5,D565V,with no effect

# Variants of: B2
# Conditions: with iho1_human IHO1, Q8IYA8
row,Variant,effect of a mutation on the interaction
1,H287N,with no effect
2,R175Q,with no effect

# Variants of: B3
# Conditions: with nmd3_human NMD3, Q96D46
row,Variant,effect of a mutation on the interaction
1,T183I,with no effect
2,V145I,with no effect

# Variants of: B4
# Conditions: with vac14_human VAC14, Q08AM6
# vac14_human VAC14, Q08AM6, sequence (Q08AM6 whole entry): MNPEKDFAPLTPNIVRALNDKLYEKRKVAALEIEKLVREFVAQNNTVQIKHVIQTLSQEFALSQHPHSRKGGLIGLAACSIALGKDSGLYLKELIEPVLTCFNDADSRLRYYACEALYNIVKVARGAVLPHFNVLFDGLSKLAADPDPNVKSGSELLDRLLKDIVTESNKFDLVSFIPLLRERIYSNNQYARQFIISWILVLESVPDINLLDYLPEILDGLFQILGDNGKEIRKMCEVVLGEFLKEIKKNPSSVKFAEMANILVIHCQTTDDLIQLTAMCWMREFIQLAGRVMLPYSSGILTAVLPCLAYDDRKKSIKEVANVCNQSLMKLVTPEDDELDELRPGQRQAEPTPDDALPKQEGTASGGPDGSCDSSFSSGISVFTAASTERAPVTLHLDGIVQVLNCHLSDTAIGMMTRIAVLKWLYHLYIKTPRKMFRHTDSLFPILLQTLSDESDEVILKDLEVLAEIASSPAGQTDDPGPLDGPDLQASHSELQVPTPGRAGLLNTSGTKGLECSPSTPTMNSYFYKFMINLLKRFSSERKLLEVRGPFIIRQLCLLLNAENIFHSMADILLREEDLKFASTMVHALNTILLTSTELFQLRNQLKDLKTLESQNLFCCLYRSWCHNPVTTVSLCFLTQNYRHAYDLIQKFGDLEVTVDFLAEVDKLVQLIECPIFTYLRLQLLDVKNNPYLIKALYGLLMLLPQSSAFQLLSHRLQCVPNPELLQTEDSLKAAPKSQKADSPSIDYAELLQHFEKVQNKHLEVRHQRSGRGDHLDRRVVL
row,Variant,effect of a mutation on the interaction
1,H166R,with no effect

# Variants of: B5
# Conditions: with dazp2_human DAZAP2, Q15038
row,Variant,effect of a mutation on the interaction
1,I16V,with no effect
